Experimental findings from patent US5882851A, “Cytochrome P-450 monooxygenases” (Novartis Finance Corporation, priority 1993, dated 1999) are described below.

Data set [1] relates to cytochrome P450. In words: Photoreversible carbon monoxide inhibition of oxime production in tropaeolum microsomes. It is filed as biochemical, Tropaeolum majus. The note with it: 60 min. The method, then: The microsomal reaction mixture consists of 80 μl microsomes (10 mg protein per ml), 10 μl ^14 C-phenylalanine (0.5 μCi, 464 mCi/mmol, Amersham) or ^14 C-tyrosine (0.5 μCi, 450 mCi/mmol, Amersham) and 10 μl NADPH (75 mg/ml). The reaction mixtures are incubated for 1 hour at 37° C. At the end of the incubation period, the reaction mixtures are extracted with 1500 μl ethyl acetate. The ethyl acetate phase is evaporated to dryness, redissolved in a small volume and analyzed.
The microsomal reaction mixtures are incubated using different experimental conditions. The reaction mixtures are analyzed by HPLC.

In data set [2] the test system is N[C@@H](Cc1ccc(O)cc1)C(=O)O. The data set is described as follows: Reconstitution of cytochrome P-450TYR activity in DLPC micelles. It is filed as biochemical, Sorghum bicolor. The note with it: pH 7.9, 30.0 °C. An excerpt: Reconstitution of the enzyme activity of a microsomal P-450 enzyme is accomplished by insertion of the cytochrome P-450 enzyme and the corresponding NADPH-cytochrome P-450 oxidoreductase into appropriate lipid micelles made from different commercially available lipids. Isolation of NADPH-cytochrome P-450 oxidoreductase is done according to Halkier and Moller, Plant Physiol. 96:10-17, 1990. A mixture of lipids can be used but with cytochrome P-450TYR di-lauroyl-phosphatidyl choline (DLPC) provides the best enzymatic activity. One rate limiting factor of this rate limiting reaction is the number of correctly formed complexes of cytochrome P-450TYR and NADPH-cytochrome P-450 oxidoreductase. Excess amounts of the oxidoreductase and concentrated enzyme solutions ensure a sufficient number of active complexes.
A reconstituted enzyme is obtained using the following components:
Cytochrome P-450TYR : 100 μg/ml in 50 mM potassium phosphate buffer pH 7,9
Oxidoreductase, purified from Sorghum bicolor: 100 μg/ml in 50 mM potassium phosphate buffer pH 7,9
Lipid: 10 mg/ml di-lauroyl-phosphatidyl choline, sonicated in 50 mM potassium phosphate buffer pH 7,9
^14 C-tyrosine: commercially available from Amersham; [U-^14 C]-L-tyrosine 0.5 μCi
(§1) 10 μl of the lipid suspension is mixed in a glass vial with 50 μl of the cytochrome P-450TYR (0-1.5 pmol) solution. 50 μl of the oxidoreductase (0-0.15 U) solution is added and then 10 μl tyrosine solution and 10 μl NADPH solution are added and the mixture is sonicated in a Branson 5200 sonication bath for one minute. The reaction mixture is subsequently incubated for 1 hour at 30° C. At the end of the incubation period the reaction is stopped by transferring the glass vials onto ice. Radioactively labelled intermediates formed are extracted into 50 μl ehtyl acetate, applied to a silica coated TLC plate and developed using an ethyl acetate/toluene (1:5 v/v) mixture as mobile phase. The resultant product, p-hydroxyphenylacetaldehyde oxime is visualized by autoradiography of the TLC plate. Alternatively, the intermediates are analyzed by reverse-phase HPLC coupled to a Berthold radioactiviy monitor. The HPLC separation was carried out using a nucleosil 100-10C18 column isocratically eluted with 1,5% 2-propanol in 25 mM Hepes pH 7,9 (Halkier et al, J. Biol. Chem. 264:19487-19494, 1989). Control samples may be made by omitting either cytochrome P-450 oxidoreductase or NADPH.

Data set [3] has as its target NADPH-cytochrome P-450 oxidoreductase, purified from Sorghum bicolor (Sorghum bicolor).
The target in data set [4] is T1, E. coli-expressed cytochrome P-450TYR (Sorghum bicolor, UniProt Q43135).
T1 construct: in which the 35 N-terminal amino acids are replaced by the nine N-terminal amino acids from bovine 17α hydroxylase; nine N-terminal amino acids from bovine 17alpha-hydroxylase (replace the 35 N-terminal residues) (N); made in house; host or cells: E. coli JM109, vector pSP19g10L
T1 sequence (Q43135 whole entry, looked up): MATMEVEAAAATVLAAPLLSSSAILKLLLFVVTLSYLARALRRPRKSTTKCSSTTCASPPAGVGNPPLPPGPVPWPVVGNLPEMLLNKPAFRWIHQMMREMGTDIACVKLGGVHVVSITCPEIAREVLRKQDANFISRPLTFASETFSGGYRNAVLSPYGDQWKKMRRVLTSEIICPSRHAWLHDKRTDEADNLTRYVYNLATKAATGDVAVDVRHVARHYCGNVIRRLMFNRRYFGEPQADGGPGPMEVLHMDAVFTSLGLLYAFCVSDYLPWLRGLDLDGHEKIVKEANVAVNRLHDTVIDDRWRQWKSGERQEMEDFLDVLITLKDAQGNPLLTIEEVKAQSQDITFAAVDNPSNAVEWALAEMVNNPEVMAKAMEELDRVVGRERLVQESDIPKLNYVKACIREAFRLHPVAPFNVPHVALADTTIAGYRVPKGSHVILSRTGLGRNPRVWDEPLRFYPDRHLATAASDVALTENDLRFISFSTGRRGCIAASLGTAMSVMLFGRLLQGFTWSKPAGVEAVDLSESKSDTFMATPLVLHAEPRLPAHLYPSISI
The data set is described as follows: Reconstitution with E. coli-expressed cytochrome P-450TYR and sorghum NADPH cytochrome P450 reductase. It is filed as biochemical. The note with it: dilaurylphosphatidylcholine micelles. As to the method:
as §1, with “50 μl of the oxidoreductase (0-0.15 U) solution is added and then 10 μl tyrosine solution and 10 μl NADPH solution are added and the mixture is sonicated in a Branson 5200 sonication bath for one minute.” left out, “The HPLC separation was carried out using a nucleosil 100-10C18 column isocratically eluted with 1,5% 2-propanol in 25 mM Hepes pH 7,9 (Halkier et al, J. Biol. Chem. 264:19487-19494, 1989).” left out
Reconstitution experiments with E. cole-expressed cytochrome P-450TYR and sorghum NADPH cytochorme P450 reductase in dilaurylpohsphatidylcholine micelles is performed as described in section 5.3. above.

Data set [5] deals with NADPH-cytochrome P-450 oxidoreductase, purified from Sorghum bicolor (Sorghum bicolor). This is another data set of the same source.

As to `[C-]#[O+]` [CO/O2, carbon monoxide], the “% inhibition of oxime production” value in data set [1] (with light (450 nm)) was determined as 23%; in data set [1] (without light) it was 65%.
Usually Km stands for the concentration of substrate that gives half-maximal velocity. cytochrome P-450TYR (Sorghum bicolor): the Km in data set [2] (other: in the absence of added salt) came out at 210 µM; in data set [2] (other: in the presence of 15 mM NaCl) it was 140 µM.
Turning to “modified cytochrome P-450TYR in which the 35 N-terminal amino acids are replaced by the nine N-terminal amino acids from bovine 17α hydroxylase, expressed in E. coli (from UniProt P05185) (enzyme)”, the oxime production by the enzyme reconstituted in dilaurylphosphatidylcholine micelles (turnover rate) (nmol oxime per nmol P-450TYR per minute) in data set [3] is 349.

B1: cytochrome P-450TYR: sorghum cytochrome P-450 monooxygenase converting tyrosine to p-hydroxyphenylacetaldehyde oxime, SEQ ID NO: 2 (protein)
chain: MATMEVEAAAATVLAAPLLSSSAILKLLLFVVTLSYLARALRRPRKSTTKCSSTTCASPPAGVGNPPLPPGPVPWPVVGNLPEMLLNKPAFRWIHQMMREMGTDIACVKLGGVHVVSITCPEIAREVLRKQDANFISRPLTFASETFSGGYRNAVLSPYGDQWKKMRRVLTSEIICPSRHAWLHDKRTDEADNLTRYVYNLATKAATGDVAVDVRHVARHYCGNVIRRLMFNRRYFGEPQADGGPGPMEVLHMDAVFTSLGLLYAFCVSDYLPWLRGLDLDGHEKIVKEANVAVNRLHDTVIDDRWRQWKSGERQEMEDFLDVLITLKDAQGNPLLTIEEVKAQSQDITFAAVDNPSNAVEWALAEMVNNPEVMAKAMEELDRVVGRERLVQESDIPKLNYVKACIREAFRLHPVAPFNVPHVALADTTIAGYRVPKGSHVILSRTGLGRNPRVWDEPLRFYPDRHLATAASDVALTENDLRFISFSTGRRGCIAASLGTAMSVMLFGRLLQGFTWSKPAGVEAVDLSESKSDTFMATPLVLHAEPRLPAHLYPSISI
With B1, in data set [4], the Turnover rate is recorded as 349 nmol oxime per nmol P-450TYR per minute.

B2: cytochrome P-450TYR from Sorghum bicolor (L.) Moench (enzyme)
chain: ATMEVEAAAATVLAAPLLSSSAILKLLLFVVTLSYLARALRRPRKSTTKCSSTTCASPPAGVGNPPLPPGPVPWPVVGNLPEMLLNKPAFRWIHQMMREMGTDIACVKLGGVHVVSITCPEIAREVLRKQDANFISRPLTFASETFSGGYRNAVLSPYGDQWKKMRRVLTSEIICPSRHAWLHDKRTDEADNLTRYVYNLATKAATGDVAVDVRHVARHYCGNVIRRLMFNRRYFGEPQADGGPGPMEVLHMDAVFTSLGLLYAFCVSDYLPWLRGLDLDGHEKIVKEANVAVNRLHDTVIDDRWRQWKSGERQEMEDFLDVLITLKDAQGNPLLTIEEVKAQSQDITFAAVDNPSNAVEWALAEMVNNPEVMAKAMEELDRVVGRERLVQESDIPKLNYVKACIREAFRLHPVAPFNVPHVALADTTIAGYRVPKGSHVILSRTGLGRNPRVWDEPLRFYPDRHLATAASDVALTENDLRFISFSTGRRGCIAASLGTAMSVMLFGRLLQGFTWSKPAGVEAVDLSESKSDTFMATPLVLHAEPRLPAHLYPSISI
Consider B2, for which, in data set [5], the conversion of L-tyrosine to p-hydroxyphenyl-acetaldehyde oxime by the enzyme reconstituted in lipid micelles (turn-over number) worked out at 198 min⁻¹.
